US20150344570A1 (published 2015)
Values belong to the binder of their own block, whether it stands above or below them.

Columns and labels:
[1] = molecular target: T1, FcγRIa extracellular domain with C-terminal His tag (human, UniProt P12314 16-292); assay: SPR Biacore, antibody captured on antigen-peptide chip, FcγR as analyte
T1 construct: extracellular domain; Soluble receptor used as analyte in Biacore; also called FcgRI; FcgRIa
T1 sequence (P12314 16-292): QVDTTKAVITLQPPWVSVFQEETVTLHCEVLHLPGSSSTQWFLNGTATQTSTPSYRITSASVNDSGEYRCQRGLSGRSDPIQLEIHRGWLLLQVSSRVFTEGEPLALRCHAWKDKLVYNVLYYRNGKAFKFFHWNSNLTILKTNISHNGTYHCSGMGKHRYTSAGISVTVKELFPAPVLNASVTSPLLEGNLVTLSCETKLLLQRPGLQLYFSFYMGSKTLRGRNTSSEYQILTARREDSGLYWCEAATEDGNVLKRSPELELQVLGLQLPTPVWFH

[2] = molecular target: T2, FcγRIIb extracellular domain with C-terminal His tag (human, UniProt P31994 43-217); assay: as above
T2 construct: extracellular domain; Soluble receptor used as analyte in Biacore; also called FcgRIIb; CD32B
T2 sequence (looked up): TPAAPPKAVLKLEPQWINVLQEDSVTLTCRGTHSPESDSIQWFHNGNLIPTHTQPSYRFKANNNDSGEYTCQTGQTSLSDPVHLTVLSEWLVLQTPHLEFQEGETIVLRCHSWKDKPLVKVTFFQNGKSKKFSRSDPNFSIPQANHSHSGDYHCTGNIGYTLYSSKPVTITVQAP

[3] = molecular target: T3, FcγRIa extracellular domain with C-terminal His tag (human, UniProt P12314 16-292); assay: SPR (Biacore); He/Con_1a divided by He/Con_2b (FcγRIa binding over FcγRIIb binding)
T3 construct: extracellular domain; also called FcgRI; 1a
Experimental: (§1) The heterodimerized antibodies He Abs in which one of the H chains was introduced with an alteration were assayed for their binding activities to each activating FcγR and inhibitory FcγR according to the method described in Example 4. […] The activating FcγRs in FIGS. 26, 27, 28, and 29 are FcγRIa, FcγRIIa (R), FcγRIIa (H), and FcγRIIIa, respectively.
(§2) Analysis of interaction between objective antibody and the FcγR was carried out using Biacore T100 (GE Healthcare). HBS-EP+ (GE Healthcare) was used as the running buffer, and the measurement temperature was set to 25° C. Chips produced by immobilizing the antigen peptide by the amine coupling method to a Series S Sencor Chip CM5 (GE Healthcare), or alternatively, chips produced by allowing preliminarily biotinylated antigen peptides to interact with and immobilize onto a Series S Sensor Chip SA (certified) (GE Healthcare) were used. Antibodies of interest were captured onto an antigen peptide-immobilized chip, and allowed to interact to each FcγR diluted with running buffer. To regenerate and repeatedly use the chip, the antibodies captured on the chip were washed off by reacting 10 mM glycine-HCl, pH 1.5.
T3 sequence (P12314 16-292): as the sequence (P12314 16-292) above

[4] = molecular target: T4, FcγRIIb extracellular domain with C-terminal His tag (human, UniProt P31994 43-217); assay: SPR (Biacore), antibody captured via antigen peptide, FcγR as analyte; relative binding
T4 construct: extracellular domain; also called FcgRIIb; 2b
T4 sequence (looked up): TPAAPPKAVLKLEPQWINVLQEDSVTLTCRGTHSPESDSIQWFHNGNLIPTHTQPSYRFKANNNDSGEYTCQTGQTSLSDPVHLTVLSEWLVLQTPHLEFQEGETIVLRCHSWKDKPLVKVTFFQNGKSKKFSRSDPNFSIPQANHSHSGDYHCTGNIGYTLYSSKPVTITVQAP
Experimental: as §1, §2

[5] = molecular target: T3, FcγRIa extracellular domain with …; assay: as above
Experimental: as §1, §2

He/Con_1a [1]: 93.3 relative, GpH7-A5/GpH7-B3/GpL16-k0 = 100 | He/Con_2b [2]: 12.2 relative, GpH7-A5/GpH7-B3/GpL16-k0 = 100
B1: GpH7-A5/GpH7-B3 variant S267_11K/GpL16-k0 (antibody, human IgG1, kappa)
heavy 1: not shown
heavy 2: not shown
light: DIVMTQSPLSLPVTPGEPASISCQASESLVHSNRNTYLHWYLQKPGQSPQLLIYKVSNRFSGVPDRFSGSGSGTDFTLKISRVEAEDVGVYYCSQNTHVPPTFGQGTKVEIERTVAAPSVFIFPPSDEQLKSGTASVVCLLNNFYPREAKVQWKVDNALQSGNSQESVTEQDSKDSTYSLSSTLTLSKADYEKHKVYACEVTHQGLSSPVTKSFNRGEC
notes: Heterodimerized anti-glypican-3 IgG1; mutation in the GpH7-B3 chain only; also called He Ab S267K

He/Con_1a [1]: 93.3 relative, GpH7-A5/GpH7-B3/GpL16-k0 = 100 | He/Con_2b [2]: 49.4 relative, GpH7-A5/GpH7-B3/GpL16-k0 = 100
B3: GpH7-A5/GpH7-B3 variant V266_15Y/GpL16-k0 (antibody, human IgG1, kappa)
heavy 1: not shown
heavy 2: not shown
light: DIVMTQSPLSLPVTPGEPASISCQASESLVHSNRNTYLHWYLQKPGQSPQLLIYKVSNRFSGVPDRFSGSGSGTDFTLKISRVEAEDVGVYYCSQNTHVPPTFGQGTKVEIERTVAAPSVFIFPPSDEQLKSGTASVVCLLNNFYPREAKVQWKVDNALQSGNSQESVTEQDSKDSTYSLSSTLTLSKADYEKHKVYACEVTHQGLSSPVTKSFNRGEC
notes: Heterodimerized anti-glypican-3 IgG1; mutation in the GpH7-B3 chain only; also called He Ab V266Y

He_1a/2b (Ia/IIb) [3]: 1.58 ratio | He/Con_2b [4]: 64.7 % of GpH7-A5/GpH7-B3/GpL16-k0 (=100) | He/Con_1a [5]: 102 % of GpH7-A5/GpH7-B3/GpL16-k0 (=100)
B6: GpH7-A5/GpH7-B3 variant Q295_04F/GpL16-k0 (antibody, human IgG1, kappa)
heavy 1: not shown
heavy 2: not shown
light: DIVMTQSPLSLPVTPGEPASISCQASESLVHSNRNTYLHWYLQKPGQSPQLLIYKVSNRFSGVPDRFSGSGSGTDFTLKISRVEAEDVGVYYCSQNTHVPPTFGQGTKVEIERTVAAPSVFIFPPSDEQLKSGTASVVCLLNNFYPREAKVQWKVDNALQSGNSQESVTEQDSKDSTYSLSSTLTLSKADYEKHKVYACEVTHQGLSSPVTKSFNRGEC
notes: Heterodimerized anti-glypican-3 IgG1; alteration only in the GpH7-B3 chain, EU numbering; also called He Ab

Continued, binder first:

B2: GpH7-A5/GpH7-B3 variant Q295_01G/GpL16-k0 (antibody, human IgG1, kappa)
heavy 1: not shown
heavy 2: not shown
light: DIVMTQSPLSLPVTPGEPASISCQASESLVHSNRNTYLHWYLQKPGQSPQLLIYKVSNRFSGVPDRFSGSGSGTDFTLKISRVEAEDVGVYYCSQNTHVPPTFGQGTKVEIERTVAAPSVFIFPPSDEQLKSGTASVVCLLNNFYPREAKVQWKVDNALQSGNSQESVTEQDSKDSTYSLSSTLTLSKADYEKHKVYACEVTHQGLSSPVTKSFNRGEC
notes: as for B6
He_1a/2b (Ia/IIb) [3]: 2.12 ratio | He/Con_2b [4]: 46 % of GpH7-A5/GpH7-B3/GpL16-k0 (=100) | He/Con_1a [5]: 97.6 % of GpH7-A5/GpH7-B3/GpL16-k0 (=100)

B4: GpH7-A5/GpH7-B3 variant Q295_02A/GpL16-k0 (antibody, human IgG1, kappa)
heavy 1: not shown
heavy 2: not shown
light: DIVMTQSPLSLPVTPGEPASISCQASESLVHSNRNTYLHWYLQKPGQSPQLLIYKVSNRFSGVPDRFSGSGSGTDFTLKISRVEAEDVGVYYCSQNTHVPPTFGQGTKVEIERTVAAPSVFIFPPSDEQLKSGTASVVCLLNNFYPREAKVQWKVDNALQSGNSQESVTEQDSKDSTYSLSSTLTLSKADYEKHKVYACEVTHQGLSSPVTKSFNRGEC
notes: as for B6
He_1a/2b (Ia/IIb) [3]: 1.31 ratio | He/Con_2b [4]: 79.7 % of GpH7-A5/GpH7-B3/GpL16-k0 (=100) | He/Con_1a [5]: 104 % of GpH7-A5/GpH7-B3/GpL16-k0 (=100)

B5: GpH7-A5/GpH7-B3 variant S267_20W/GpL16-k0 (antibody, human IgG1, kappa)
heavy 1: not shown
heavy 2: not shown
light: DIVMTQSPLSLPVTPGEPASISCQASESLVHSNRNTYLHWYLQKPGQSPQLLIYKVSNRFSGVPDRFSGSGSGTDFTLKISRVEAEDVGVYYCSQNTHVPPTFGQGTKVEIERTVAAPSVFIFPPSDEQLKSGTASVVCLLNNFYPREAKVQWKVDNALQSGNSQESVTEQDSKDSTYSLSSTLTLSKADYEKHKVYACEVTHQGLSSPVTKSFNRGEC
notes: Heterodimerized anti-glypican-3 IgG1; mutation in the GpH7-B3 chain only; also called He Ab S267W
He/Con_1a [1]: 99.4 relative, GpH7-A5/GpH7-B3/GpL16-k0 = 100 | He/Con_2b [2]: 57.2 relative, GpH7-A5/GpH7-B3/GpL16-k0 = 100

B7: GpH7-A5/GpH7-B3 variant V266_16H/GpL16-k0 (antibody, human IgG1, kappa)
heavy 1: not shown
heavy 2: not shown
light: DIVMTQSPLSLPVTPGEPASISCQASESLVHSNRNTYLHWYLQKPGQSPQLLIYKVSNRFSGVPDRFSGSGSGTDFTLKISRVEAEDVGVYYCSQNTHVPPTFGQGTKVEIERTVAAPSVFIFPPSDEQLKSGTASVVCLLNNFYPREAKVQWKVDNALQSGNSQESVTEQDSKDSTYSLSSTLTLSKADYEKHKVYACEVTHQGLSSPVTKSFNRGEC
notes: Heterodimerized anti-glypican-3 IgG1; mutation in the GpH7-B3 chain only; also called He Ab V266H
He/Con_1a [1]: 89.1 relative, GpH7-A5/GpH7-B3/GpL16-k0 = 100 | He/Con_2b [2]: 57.2 relative, GpH7-A5/GpH7-B3/GpL16-k0 = 100
